Values belong to the binder of their own block, whether it stands above or below them.
How the values were obtained:
[1] = target: T1, Recombinant mouse CTLA-4/human IgG1 chimera (R&D Systems) (mouse; human, UniProt P09793 36-162, limits assumed); experiment: ELISA; mouse CTLA-4/human IgG1 chimera coated at 1 or 5 µg/mL, HEK293 conditioned medium (168 ng/mL), anti-mouse IgG-HRP, OD 450 nm
T1 construct: Bought reagent, immobilised in 96-well plates; also called recombinant mCTLA-4/Fc; recombinant CTLA4 protein; not shown: human IgG1 portion (Fc) of the bought chimera
Description: (§1) Plasmid encoded anti-CTLA4 scFv bound to recombinant CTLA4 protein. Transfection-derived secreted anti-CTLA4 (scFv) were evaluated for their binding capacity to CTLA-4. Recombinant mouse CTLA-4/human IgG1 chimera (R&D Systems) were immobilized in 96-well plates (1 or 5 μg/mL, or […]) for 18 hr at room temperature. Wells were washed three times with 0.1% Tween in PBS and blocked with 1% BSA in PBS. Conditioned medium from HEK293 cells transfected with 9H10-scFv (168 ng/mL) or 9D9-scFv (130 ng/mL) was added to the wells, and incubated for 2 h at room temperature. Wells were washed three times, and anti-mouse IgG-horseradish peroxidase (Jackson ImmunoResearch, 0.2 μg/mL) were added and incubated for 1.5 hours at room temperature. Wells were again washed three times, developed with HRP Substrate Reagent (R&D Systems) and stopped with Stop Solution, 2N sulfuric acid (R&D Systems). Optical density of each well was measured at 450 nm.

[2] = target: T1, Recombinant mouse CTLA-4/human IgG1 …; experiment: ELISA; mouse CTLA-4/human IgG1 chimera coated at 1 or 5 µg/mL, HEK293 conditioned medium (130 ng/mL), anti-mouse IgG-HRP, OD 450 nm
Description: as §1

binding result [1]: binds
B1: Igκ-HA-9H10 VLC-Linker-9H10 VHC-Linker-mIgG1 Fc domain (anti-CTLA-4 scFv) (Fc fusion)
scFv: YPYDVPDYAGAQPARSDIVMTQSPSSLAVSVGEKVTISCKSSQSLLYGSSHYLAWYQQKVGQSPKLLIYWASTRHTGIPDRFIGSGSGTDFTLSLSSVQAEDMADYFCQQYFSTPWTFGAGTRVEIKSGSGGGSGGGSGGGSQVQLLQSESELVKPGASVKLSCKTSGYTFTDYYIHWVKQKPGQGLEWIGLINPNNDGTNYNQKFQGKATLTADKSSSTAYMELNSLTFDDSVIYFCARASSRLRMARTTSDYYAMDYWGQGIQVTVSSVDSSGSGGCKPCICTVPEVSSVFIFPPKPKDVLTITLTPKVTCVVVDISKDDPEVQFSWFVDDVEVHTAQTQPREEQFNSTFRSVSELPIMHQDWLNGKEFKCRVNSAAFPAPIEKTISKTKGRPKAPQVYTIPPPKEQMAKDKVSLTCMITDFFPEDITVEWQWNGQPAENYKNTQPIMDTDGSYFVYSKLNVQKSNWEAGNTFTCSVLHEGLHNHHTEKSLSHSPGK
notes: Secreted into the conditioned medium of transfected HEK293 cells (168 ng/mL) and used as such; also called 9H10-scFv; plasmid encoded anti-CTLA4 scFv

binding result [2]: binds
B2: Igκ-HA-9D9 VLC-Linker-9D9 VHC-Linker-mIgG1 Fc domain (anti-CTLA-4 scFv) (Fc fusion)
scFv: YPYDVPDYAGAQPARSDIVMTQTTLSLPVSLGDQASISCRSSQSIVHSNGNTYLEWYLQKPGQSPKLLIYKVSNRFSGVPDRFSGSGSGTDFTLKISRVEAEDLGVYYCFQGSHVPYTFGGGTKLEIKRADAAPTVSGSGGGSGGGSGGGSEAKLQESGPVLVKPGASVKMSCKASGYTFTDYYMNWVKQSHGKSLEWIGVINPYNGDTSYNQKFKGKATLTVDKSSSTAYMELNSLTSEDSAVYYCARYYGSWFAYWGQGTLITVSTAKTTPPSVYPLAPVDSSGSGGCKPCICTVPEVSSVFIFPPKPKDVLTITLTPKVTCVVVDISKDDPEVQFSWFVDDVEVHTAQTQPREEQFNSTFRSVSELPIMHQDWLNGKEFKCRVNSAAFPAPIEKTISKTKGRPKAPQVYTIPPPKEQMAKDKVSLTCMITDFFPEDITVEWQWNGQPAENYKNTQPIMDTDGSYFVYSKLNVQKSNWEAGNTFTCSVLHEGLHNHHTEKSLSHSPGK
notes: Secreted into the conditioned medium of transfected HEK293 cells (130 ng/mL) and used as such; also called 9D9-scFv; plasmid encoded anti-CTLA4 scFv

— patent US20230277624A1 (ONCOSEC MEDICAL, published 2023)
